Assay results from patent publication US20180298070A1, “PEPTIDE COMPOUND” (Takeda Pharmaceutical Company Limited, published 2018).
Starred links: 1 amine or outer side, 2 acyl side, 3 side chain; linkers in the order of their positions; H or OH if unused. Non-standard residues stand in square brackets, D forms with d. Groups on a side chain read outwards from the residue. Primed or numbered codes have the meaning given here. No end group written: not given here. *: point of attachment. C20 diacid = O=C(O)CCCCCCCCCCCCCCCCCCC(=O)*; γGlu = O=C(O)[C@H](CCC(=O)[*:2])N[*:1]; NMeY = CN[C@@H](Cc1ccc(O)cc1)C(=O)O; Iva = CC[C@](C)(N)C(=O)O; PEG3′ = not defined here; Aib = CC(C)(N)C(=O)O

T1: human GIPR (human), P48546
T1 chain: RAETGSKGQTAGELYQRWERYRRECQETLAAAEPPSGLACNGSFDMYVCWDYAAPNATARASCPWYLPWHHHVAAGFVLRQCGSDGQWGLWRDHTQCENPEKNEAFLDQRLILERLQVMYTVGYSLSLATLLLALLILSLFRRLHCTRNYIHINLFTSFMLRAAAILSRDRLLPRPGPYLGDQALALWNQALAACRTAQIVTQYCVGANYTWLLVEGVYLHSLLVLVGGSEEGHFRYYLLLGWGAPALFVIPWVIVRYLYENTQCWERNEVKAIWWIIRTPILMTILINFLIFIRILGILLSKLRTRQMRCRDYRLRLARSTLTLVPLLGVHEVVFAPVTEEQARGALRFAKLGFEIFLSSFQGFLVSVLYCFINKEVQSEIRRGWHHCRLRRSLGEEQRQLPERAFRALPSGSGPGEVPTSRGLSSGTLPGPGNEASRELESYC

B1: Compound 8 (peptide)
peptide: Y[Aib]EGTVKSDYSI[Aib]LDKQAQ[Aib]EFVKWLLKGGPSSGAPPPSK-NH2
modifications: N-terminus assumed
SMILES: CC[C@H](C)[C@H](NC(=O)[C@H](CO)NC(=O)[C@H](Cc1ccc(O)cc1)NC(=O)[C@H](CC(=O)O)NC(=O)[C@H](CO)NC(=O)[C@H](CCCCN)NC(=O)[C@@H](NC(=O)[C@@H](NC(=O)CNC(=O)[C@H](CCC(=O)O)NC(=O)C(C)(C)NC(=O)[C@@H](N)Cc1ccc(O)cc1)[C@@H](C)O)C(C)C)C(=O)NC(C)(C)C(=O)N[C@@H](CC(C)C)C(=O)N[C@@H](CC(=O)O)C(=O)N[C@@H](CCCCN)C(=O)N[C@@H](CCC(N)=O)C(=O)N[C@@H](C)C(=O)N[C@@H](CCC(N)=O)C(=O)NC(C)(C)C(=O)N[C@@H](CCC(=O)O)C(=O)N[C@@H](Cc1ccccc1)C(=O)N[C@H](C(=O)N[C@@H](CCCCN)C(=O)N[C@@H](Cc1c[nH]c2ccccc12)C(=O)N[C@@H](CC(C)C)C(=O)N[C@@H](CC(C)C)C(=O)N[C@@H](CCCCN)C(=O)NCC(=O)NCC(=O)N1CCC[C@H]1C(=O)N[C@@H](CO)C(=O)N[C@@H](CO)C(=O)NCC(=O)N[C@@H](C)C(=O)N1CCC[C@H]1C(=O)N1CCC[C@H]1C(=O)N1CCC[C@H]1C(=O)N[C@@H](CO)C(=O)N[C@@H](CCCCN)C(N)=O)C(C)C
B2: Compound 117 (peptide)
peptide: [NMeY][Aib]EGTFISDYSIALDR[Aib]HQ[Aib]NFVNW[Iva]LAQRPSSGAPPPSR-NH2
modifications: N-terminus assumed
SMILES: CC[C@H](C)[C@H](NC(=O)[C@H](CO)NC(=O)[C@H](Cc1ccc(O)cc1)NC(=O)[C@H](CC(=O)O)NC(=O)[C@H](CO)NC(=O)[C@@H](NC(=O)[C@H](Cc1ccccc1)NC(=O)[C@@H](NC(=O)CNC(=O)[C@H](CCC(=O)O)NC(=O)C(C)(C)NC(=O)[C@H](Cc1ccc(O)cc1)NC)[C@@H](C)O)[C@@H](C)CC)C(=O)N[C@@H](C)C(=O)N[C@@H](CC(C)C)C(=O)N[C@@H](CC(=O)O)C(=O)N[C@@H](CCCNC(=N)N)C(=O)NC(C)(C)C(=O)N[C@@H](Cc1c[nH]cn1)C(=O)N[C@@H](CCC(N)=O)C(=O)NC(C)(C)C(=O)N[C@@H](CC(N)=O)C(=O)N[C@@H](Cc1ccccc1)C(=O)N[C@H](C(=O)N[C@@H](CC(N)=O)C(=O)N[C@@H](Cc1c[nH]c2ccccc12)C(=O)N[C@@](C)(CC)C(=O)N[C@@H](CC(C)C)C(=O)N[C@@H](C)C(=O)N[C@@H](CCC(N)=O)C(=O)N[C@@H](CCCNC(=N)N)C(=O)N1CCC[C@H]1C(=O)N[C@@H](CO)C(=O)N[C@@H](CO)C(=O)NCC(=O)N[C@@H](C)C(=O)N1CCC[C@H]1C(=O)N1CCC[C@H]1C(=O)N1CCC[C@H]1C(=O)N[C@@H](CO)C(=O)N[C@@H](CCCNC(=N)N)C(N)=O)C(C)C
B3: Compound 59 (peptide)
peptide: [NMeY][Aib]EGTFISDYSIALDRIAQQDFVNWLLAQRPSSGAPPPSR-NH2
modifications: N-terminus assumed
SMILES: CC[C@H](C)[C@H](NC(=O)[C@H](CCCNC(=N)N)NC(=O)[C@H](CC(=O)O)NC(=O)[C@H](CC(C)C)NC(=O)[C@H](C)NC(=O)[C@@H](NC(=O)[C@H](CO)NC(=O)[C@H](Cc1ccc(O)cc1)NC(=O)[C@H](CC(=O)O)NC(=O)[C@H](CO)NC(=O)[C@@H](NC(=O)[C@H](Cc1ccccc1)NC(=O)[C@@H](NC(=O)CNC(=O)[C@H](CCC(=O)O)NC(=O)C(C)(C)NC(=O)[C@H](Cc1ccc(O)cc1)NC)[C@@H](C)O)[C@@H](C)CC)[C@@H](C)CC)C(=O)N[C@@H](C)C(=O)N[C@@H](CCC(N)=O)C(=O)N[C@@H](CCC(N)=O)C(=O)N[C@@H](CC(=O)O)C(=O)N[C@@H](Cc1ccccc1)C(=O)N[C@H](C(=O)N[C@@H](CC(N)=O)C(=O)N[C@@H](Cc1c[nH]c2ccccc12)C(=O)N[C@@H](CC(C)C)C(=O)N[C@@H](CC(C)C)C(=O)N[C@@H](C)C(=O)N[C@@H](CCC(N)=O)C(=O)N[C@@H](CCCNC(=N)N)C(=O)N1CCC[C@H]1C(=O)N[C@@H](CO)C(=O)N[C@@H](CO)C(=O)NCC(=O)N[C@@H](C)C(=O)N1CCC[C@H]1C(=O)N1CCC[C@H]1C(=O)N1CCC[C@H]1C(=O)N[C@@H](CO)C(=O)N[C@@H](CCCNC(=N)N)C(N)=O)C(C)C
B4: Compound 7 (peptide)
peptide: Y[Aib]EGTVVSFYSI[Aib]LDKQAQ[Aib]EFVKWLLKGGPSSGAPPPSK-NH2
modifications: N-terminus assumed
SMILES: CC[C@H](C)[C@H](NC(=O)[C@H](CO)NC(=O)[C@H](Cc1ccc(O)cc1)NC(=O)[C@H](Cc1ccccc1)NC(=O)[C@H](CO)NC(=O)[C@@H](NC(=O)[C@@H](NC(=O)[C@@H](NC(=O)CNC(=O)[C@H](CCC(=O)O)NC(=O)C(C)(C)NC(=O)[C@@H](N)Cc1ccc(O)cc1)[C@@H](C)O)C(C)C)C(C)C)C(=O)NC(C)(C)C(=O)N[C@@H](CC(C)C)C(=O)N[C@@H](CC(=O)O)C(=O)N[C@@H](CCCCN)C(=O)N[C@@H](CCC(N)=O)C(=O)N[C@@H](C)C(=O)N[C@@H](CCC(N)=O)C(=O)NC(C)(C)C(=O)N[C@@H](CCC(=O)O)C(=O)N[C@@H](Cc1ccccc1)C(=O)N[C@H](C(=O)N[C@@H](CCCCN)C(=O)N[C@@H](Cc1c[nH]c2ccccc12)C(=O)N[C@@H](CC(C)C)C(=O)N[C@@H](CC(C)C)C(=O)N[C@@H](CCCCN)C(=O)NCC(=O)NCC(=O)N1CCC[C@H]1C(=O)N[C@@H](CO)C(=O)N[C@@H](CO)C(=O)NCC(=O)N[C@@H](C)C(=O)N1CCC[C@H]1C(=O)N1CCC[C@H]1C(=O)N1CCC[C@H]1C(=O)N[C@@H](CO)C(=O)N[C@@H](CCCCN)C(N)=O)C(C)C
B5: Compound 42 (peptide)
peptide: Y[Aib]EGTVVSLYSI[Aib]LDKQAQ[Aib]EFVKW[Aib]LKGGPSSGAPPPSK-NH2
modifications: N-terminus assumed
SMILES: CC[C@H](C)[C@H](NC(=O)[C@H](CO)NC(=O)[C@H](Cc1ccc(O)cc1)NC(=O)[C@H](CC(C)C)NC(=O)[C@H](CO)NC(=O)[C@@H](NC(=O)[C@@H](NC(=O)[C@@H](NC(=O)CNC(=O)[C@H](CCC(=O)O)NC(=O)C(C)(C)NC(=O)[C@@H](N)Cc1ccc(O)cc1)[C@@H](C)O)C(C)C)C(C)C)C(=O)NC(C)(C)C(=O)N[C@@H](CC(C)C)C(=O)N[C@@H](CC(=O)O)C(=O)N[C@@H](CCCCN)C(=O)N[C@@H](CCC(N)=O)C(=O)N[C@@H](C)C(=O)N[C@@H](CCC(N)=O)C(=O)NC(C)(C)C(=O)N[C@@H](CCC(=O)O)C(=O)N[C@@H](Cc1ccccc1)C(=O)N[C@H](C(=O)N[C@@H](CCCCN)C(=O)N[C@@H](Cc1c[nH]c2ccccc12)C(=O)NC(C)(C)C(=O)N[C@@H](CC(C)C)C(=O)N[C@@H](CCCCN)C(=O)NCC(=O)NCC(=O)N1CCC[C@H]1C(=O)N[C@@H](CO)C(=O)N[C@@H](CO)C(=O)NCC(=O)N[C@@H](C)C(=O)N1CCC[C@H]1C(=O)N1CCC[C@H]1C(=O)N1CCC[C@H]1C(=O)N[C@@H](CO)C(=O)N[C@@H](CCCCN)C(N)=O)C(C)C
B6: Compound 10 (peptide)
peptide: Y[Aib]EGTVKSDYSILLDKQAQ[Aib]EFVKWLLKGGPSSGAPPPSK-NH2
modifications: N-terminus assumed
SMILES: CC[C@H](C)[C@H](NC(=O)[C@H](CO)NC(=O)[C@H](Cc1ccc(O)cc1)NC(=O)[C@H](CC(=O)O)NC(=O)[C@H](CO)NC(=O)[C@H](CCCCN)NC(=O)[C@@H](NC(=O)[C@@H](NC(=O)CNC(=O)[C@H](CCC(=O)O)NC(=O)C(C)(C)NC(=O)[C@@H](N)Cc1ccc(O)cc1)[C@@H](C)O)C(C)C)C(=O)N[C@@H](CC(C)C)C(=O)N[C@@H](CC(C)C)C(=O)N[C@@H](CC(=O)O)C(=O)N[C@@H](CCCCN)C(=O)N[C@@H](CCC(N)=O)C(=O)N[C@@H](C)C(=O)N[C@@H](CCC(N)=O)C(=O)NC(C)(C)C(=O)N[C@@H](CCC(=O)O)C(=O)N[C@@H](Cc1ccccc1)C(=O)N[C@H](C(=O)N[C@@H](CCCCN)C(=O)N[C@@H](Cc1c[nH]c2ccccc12)C(=O)N[C@@H](CC(C)C)C(=O)N[C@@H](CC(C)C)C(=O)N[C@@H](CCCCN)C(=O)NCC(=O)NCC(=O)N1CCC[C@H]1C(=O)N[C@@H](CO)C(=O)N[C@@H](CO)C(=O)NCC(=O)N[C@@H](C)C(=O)N1CCC[C@H]1C(=O)N1CCC[C@H]1C(=O)N1CCC[C@H]1C(=O)N[C@@H](CO)C(=O)N[C@@H](CCCCN)C(N)=O)C(C)C
B7: Compound 113 (peptide)
peptide: YXEGTXISDYSIXLDRXAQXNFVNWXLAQRPSSGAPPPSR
modifications: N-methyl on Tyr 1 (Me-Tyr); Aib at 2, 13, 17, 20; Iva at 6, 26; C-terminal amide (NH2)

What was measured:
human GLP-1R = human GLP-1R (human, UniProt P43220); experiment: cell-based or functional assay
[1] = target: T1, human GIPR (human), P48546; experiment: [125I]GIP competition, human GIPR VLP

Row | Binder | Agonist activity (EC50, M) (human GLP-1R) | IC50 [1]
1 | B1 | > 1e-06 M | 
2 | Y[Aib]EGTVVSLYSK([PEG3′-PEG3′-γGlu-C20 diacid])[Aib]LDRQAQ[Aib]EFVK(Ac)WLLRGGPSSGAPPPS (ends and bridges not checked) [Compound 326] |  | 15 nM
3 | B2 | > 1e-06 M | 
4 | Y[Aib]EGTVVSLYSK([PEG3′-PEG3′-C20 diacid])[Aib]LDRQAQ[Aib]EFVK(Ac)WLLRGGPSSGAPPPS (ends and bridges not checked) [Compound 324] |  | 7.8 nM
5 | B3 | > 1e-06 M | 
6 | B4 | > 1e-06 M | 
7 | B5 | > 1e-06 M | 
8 | B6 | > 1e-06 M | 
9 | YXEGTXISDYSIALDRXAQXNFVNWLLAQRPSSGAPPPSR (N-methyl on Tyr 1 (Me-Tyr); Aib at 2, 17, 20; Iva at 6; C-terminal amide (NH2)) [Compound 104] | > 1e-06 M | 
10 | B7 | > 1e-06 M | 
